This test deals with NTR 2.0 (engineered nitroreductase; Vibrio vulnificus NfsB F70A/F108Y) (Vibrio vulnificus (CMCP6)). Kind of test: crystal structure; hanging-drop vapour diffusion at 291 K; protein 10 mg/mL in 40 mM Tris-HCl pH 7.0, 200 mM NaCl; precipitant 0.1 M sodium acetate trihydrate pH 4.5, 32% (v/v) PEG 300; two molecules in the asymmetric unit; FMN and acetate bound.

In general, stoichiometry N refers to a count of units in the complex or per binding partner. The substance “NTR 2.0 (engineered nitroreductase; Vibrio vulnificus NfsB F70A/F108Y) (enzyme)” returned a stoichiometry N of 2.

The record behind these values is publication PMC10095097.
